Molecular target: VASH2 (Cys158Ala), the VASH2 chain of the cryo-EM sample (human, UniProt Q86V25 1-355, Cys158 to alanine)
Assay: cryo-EM structure

Chain of VASH2 (Cys158Ala), the VASH2 chain of the cryo-EM sample (Q86V25 whole entry C158A): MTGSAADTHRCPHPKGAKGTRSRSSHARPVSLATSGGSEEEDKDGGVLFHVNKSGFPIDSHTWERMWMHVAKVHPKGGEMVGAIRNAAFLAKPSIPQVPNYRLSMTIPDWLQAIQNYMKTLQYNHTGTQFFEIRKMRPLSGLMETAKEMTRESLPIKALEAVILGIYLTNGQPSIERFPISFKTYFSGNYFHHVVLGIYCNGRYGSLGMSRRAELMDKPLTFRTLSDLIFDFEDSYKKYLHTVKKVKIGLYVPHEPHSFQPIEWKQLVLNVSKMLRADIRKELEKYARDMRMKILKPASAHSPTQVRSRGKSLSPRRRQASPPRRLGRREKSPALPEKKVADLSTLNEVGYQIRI

binding result: binds
B1: SVBP with a 6His tag, the SVBP chain of the cryo-EM sample (natural protein, human, UniProt Q8N300 1-66, looked up)
chain: MDPPARKEKTKVKESVSRVEKAKQKSAQQELKQRQRAEIYALNRVMTELEQQQFDEFCKQMQPPGE

Source: PMC9750192 (The Journal of Cell Biology, 2022)
